Results from patent publication US20150344540A1, “NOVEL GLP-1 RECEPTOR AGONISTS WITH CHOLESTEROL EFFLUX ACTIVITY” (NOVO NORDISK A/S, priority 2012, published 2015).
Where no end group is shown, it is not given here. [ ]: non-standard residue; d: D form. Aib = CC(C)(N)C(=O)O

B1: [Aib8,Glu23,Val25,Glu34,Lys35,Val36,Lys37]-GLP-1-(7-37)-peptidyl-Gly-Phe-Leu amide (peptide)
peptide: H[Aib]EGTFTSDVSSYLEGEAVKEFIAWLVEKVKGFL-NH2
modifications: N-terminus assumed
SMILES: CC[C@H](C)[C@H](NC(=O)[C@H](Cc1ccccc1)NC(=O)[C@H](CCC(=O)O)NC(=O)[C@H](CCCCN)NC(=O)[C@@H](NC(=O)[C@H](C)NC(=O)[C@H](CCC(=O)O)NC(=O)CNC(=O)[C@H](CCC(=O)O)NC(=O)[C@H](CC(C)C)NC(=O)[C@H](Cc1ccc(O)cc1)NC(=O)[C@H](CO)NC(=O)[C@H](CO)NC(=O)[C@@H](NC(=O)[C@H](CC(=O)O)NC(=O)[C@H](CO)NC(=O)[C@@H](NC(=O)[C@H](Cc1ccccc1)NC(=O)[C@@H](NC(=O)CNC(=O)[C@H](CCC(=O)O)NC(=O)C(C)(C)NC(=O)[C@@H](N)Cc1c[nH]cn1)[C@@H](C)O)[C@@H](C)O)C(C)C)C(C)C)C(=O)N[C@@H](C)C(=O)N[C@@H](Cc1c[nH]c2ccccc12)C(=O)N[C@@H](CC(C)C)C(=O)N[C@H](C(=O)N[C@@H](CCC(=O)O)C(=O)N[C@@H](CCCCN)C(=O)N[C@H](C(=O)N[C@@H](CCCCN)C(=O)NCC(=O)N[C@@H](Cc1ccccc1)C(=O)N[C@@H](CC(C)C)C(N)=O)C(C)C)C(C)C
B2: [Aib8,Glu23,Val25,Glu34,Lys35,Val36,Lys37]-GLP-1-(7-37)-peptidyl-Glu-Lys-Leu amide (peptide)
peptide: H[Aib]EGTFTSDVSSYLEGEAVKEFIAWLVEKVKEKL-NH2
modifications: N-terminus assumed
SMILES: CC[C@H](C)[C@H](NC(=O)[C@H](Cc1ccccc1)NC(=O)[C@H](CCC(=O)O)NC(=O)[C@H](CCCCN)NC(=O)[C@@H](NC(=O)[C@H](C)NC(=O)[C@H](CCC(=O)O)NC(=O)CNC(=O)[C@H](CCC(=O)O)NC(=O)[C@H](CC(C)C)NC(=O)[C@H](Cc1ccc(O)cc1)NC(=O)[C@H](CO)NC(=O)[C@H](CO)NC(=O)[C@@H](NC(=O)[C@H](CC(=O)O)NC(=O)[C@H](CO)NC(=O)[C@@H](NC(=O)[C@H](Cc1ccccc1)NC(=O)[C@@H](NC(=O)CNC(=O)[C@H](CCC(=O)O)NC(=O)C(C)(C)NC(=O)[C@@H](N)Cc1c[nH]cn1)[C@@H](C)O)[C@@H](C)O)C(C)C)C(C)C)C(=O)N[C@@H](C)C(=O)N[C@@H](Cc1c[nH]c2ccccc12)C(=O)N[C@@H](CC(C)C)C(=O)N[C@H](C(=O)N[C@@H](CCC(=O)O)C(=O)N[C@@H](CCCCN)C(=O)N[C@H](C(=O)N[C@@H](CCCCN)C(=O)N[C@@H](CCC(=O)O)C(=O)N[C@@H](CCCCN)C(=O)N[C@@H](CC(C)C)C(N)=O)C(C)C)C(C)C
B3: [Aib8,Glu23,Val25,Glu34,Lys35,Gly36,Lys37]-GLP-1-(7-37)-peptidyl-Glu-Phe-Leu amide (peptide)
peptide: H[Aib]EGTFTSDVSSYLEGEAVKEFIAWLVEKGKEFL-NH2
modifications: N-terminus assumed
SMILES: CC[C@H](C)[C@H](NC(=O)[C@H](Cc1ccccc1)NC(=O)[C@H](CCC(=O)O)NC(=O)[C@H](CCCCN)NC(=O)[C@@H](NC(=O)[C@H](C)NC(=O)[C@H](CCC(=O)O)NC(=O)CNC(=O)[C@H](CCC(=O)O)NC(=O)[C@H](CC(C)C)NC(=O)[C@H](Cc1ccc(O)cc1)NC(=O)[C@H](CO)NC(=O)[C@H](CO)NC(=O)[C@@H](NC(=O)[C@H](CC(=O)O)NC(=O)[C@H](CO)NC(=O)[C@@H](NC(=O)[C@H](Cc1ccccc1)NC(=O)[C@@H](NC(=O)CNC(=O)[C@H](CCC(=O)O)NC(=O)C(C)(C)NC(=O)[C@@H](N)Cc1c[nH]cn1)[C@@H](C)O)[C@@H](C)O)C(C)C)C(C)C)C(=O)N[C@@H](C)C(=O)N[C@@H](Cc1c[nH]c2ccccc12)C(=O)N[C@@H](CC(C)C)C(=O)N[C@H](C(=O)N[C@@H](CCC(=O)O)C(=O)N[C@@H](CCCCN)C(=O)NCC(=O)N[C@@H](CCCCN)C(=O)N[C@@H](CCC(=O)O)C(=O)N[C@@H](Cc1ccccc1)C(=O)N[C@@H](CC(C)C)C(N)=O)C(C)C
B4: [Aib8,Glu23,Val25,Glu34,Lys35,Val36,Lys37]-GLP-1-(7-37)-peptidyl-Asp-Phe-Leu amide (peptide)
peptide: H[Aib]EGTFTSDVSSYLEGEAVKEFIAWLVEKVKDFL-NH2
modifications: N-terminus assumed
SMILES: CC[C@H](C)[C@H](NC(=O)[C@H](Cc1ccccc1)NC(=O)[C@H](CCC(=O)O)NC(=O)[C@H](CCCCN)NC(=O)[C@@H](NC(=O)[C@H](C)NC(=O)[C@H](CCC(=O)O)NC(=O)CNC(=O)[C@H](CCC(=O)O)NC(=O)[C@H](CC(C)C)NC(=O)[C@H](Cc1ccc(O)cc1)NC(=O)[C@H](CO)NC(=O)[C@H](CO)NC(=O)[C@@H](NC(=O)[C@H](CC(=O)O)NC(=O)[C@H](CO)NC(=O)[C@@H](NC(=O)[C@H](Cc1ccccc1)NC(=O)[C@@H](NC(=O)CNC(=O)[C@H](CCC(=O)O)NC(=O)C(C)(C)NC(=O)[C@@H](N)Cc1c[nH]cn1)[C@@H](C)O)[C@@H](C)O)C(C)C)C(C)C)C(=O)N[C@@H](C)C(=O)N[C@@H](Cc1c[nH]c2ccccc12)C(=O)N[C@@H](CC(C)C)C(=O)N[C@H](C(=O)N[C@@H](CCC(=O)O)C(=O)N[C@@H](CCCCN)C(=O)N[C@H](C(=O)N[C@@H](CCCCN)C(=O)N[C@@H](CC(=O)O)C(=O)N[C@@H](Cc1ccccc1)C(=O)N[C@@H](CC(C)C)C(N)=O)C(C)C)C(C)C
B5: [Aib8,Glu23,Val25,Glu30,Glu34,Lys35,Val36,Lys37]-GLP-1-(7-37)-peptidyl-Glu-Lys-Leu amide (peptide)
peptide: H[Aib]EGTFTSDVSSYLEGEAVKEFIEWLVEKVKEKL-NH2
modifications: N-terminus assumed
SMILES: CC[C@H](C)[C@H](NC(=O)[C@H](Cc1ccccc1)NC(=O)[C@H](CCC(=O)O)NC(=O)[C@H](CCCCN)NC(=O)[C@@H](NC(=O)[C@H](C)NC(=O)[C@H](CCC(=O)O)NC(=O)CNC(=O)[C@H](CCC(=O)O)NC(=O)[C@H](CC(C)C)NC(=O)[C@H](Cc1ccc(O)cc1)NC(=O)[C@H](CO)NC(=O)[C@H](CO)NC(=O)[C@@H](NC(=O)[C@H](CC(=O)O)NC(=O)[C@H](CO)NC(=O)[C@@H](NC(=O)[C@H](Cc1ccccc1)NC(=O)[C@@H](NC(=O)CNC(=O)[C@H](CCC(=O)O)NC(=O)C(C)(C)NC(=O)[C@@H](N)Cc1c[nH]cn1)[C@@H](C)O)[C@@H](C)O)C(C)C)C(C)C)C(=O)N[C@@H](CCC(=O)O)C(=O)N[C@@H](Cc1c[nH]c2ccccc12)C(=O)N[C@@H](CC(C)C)C(=O)N[C@H](C(=O)N[C@@H](CCC(=O)O)C(=O)N[C@@H](CCCCN)C(=O)N[C@H](C(=O)N[C@@H](CCCCN)C(=O)N[C@@H](CCC(=O)O)C(=O)N[C@@H](CCCCN)C(=O)N[C@@H](CC(C)C)C(N)=O)C(C)C)C(C)C
B6: [Aib8,Glu23,Val25,Lys35,Aib36,Lys37]-GLP-1-(7-37)-peptidyl-Glu-Phe-Leu amide (peptide)
peptide: H[Aib]EGTFTSDVSSYLEGEAVKEFIAWLVKK[Aib]KEFL-NH2
modifications: N-terminus assumed
SMILES: CC[C@H](C)[C@H](NC(=O)[C@H](Cc1ccccc1)NC(=O)[C@H](CCC(=O)O)NC(=O)[C@H](CCCCN)NC(=O)[C@@H](NC(=O)[C@H](C)NC(=O)[C@H](CCC(=O)O)NC(=O)CNC(=O)[C@H](CCC(=O)O)NC(=O)[C@H](CC(C)C)NC(=O)[C@H](Cc1ccc(O)cc1)NC(=O)[C@H](CO)NC(=O)[C@H](CO)NC(=O)[C@@H](NC(=O)[C@H](CC(=O)O)NC(=O)[C@H](CO)NC(=O)[C@@H](NC(=O)[C@H](Cc1ccccc1)NC(=O)[C@@H](NC(=O)CNC(=O)[C@H](CCC(=O)O)NC(=O)C(C)(C)NC(=O)[C@@H](N)Cc1c[nH]cn1)[C@@H](C)O)[C@@H](C)O)C(C)C)C(C)C)C(=O)N[C@@H](C)C(=O)N[C@@H](Cc1c[nH]c2ccccc12)C(=O)N[C@@H](CC(C)C)C(=O)N[C@H](C(=O)N[C@@H](CCCCN)C(=O)N[C@@H](CCCCN)C(=O)NC(C)(C)C(=O)N[C@@H](CCCCN)C(=O)N[C@@H](CCC(=O)O)C(=O)N[C@@H](Cc1ccccc1)C(=O)N[C@@H](CC(C)C)C(N)=O)C(C)C
B7: [Aib8,Glu23,Val25,Glu34,Lys35,Val36,Lys37]-GLP-1-(7-37)-peptidyl-Glu-Gly-Leu amide (peptide)
peptide: H[Aib]EGTFTSDVSSYLEGEAVKEFIAWLVEKVKEGL-NH2
modifications: N-terminus assumed
SMILES: CC[C@H](C)[C@H](NC(=O)[C@H](Cc1ccccc1)NC(=O)[C@H](CCC(=O)O)NC(=O)[C@H](CCCCN)NC(=O)[C@@H](NC(=O)[C@H](C)NC(=O)[C@H](CCC(=O)O)NC(=O)CNC(=O)[C@H](CCC(=O)O)NC(=O)[C@H](CC(C)C)NC(=O)[C@H](Cc1ccc(O)cc1)NC(=O)[C@H](CO)NC(=O)[C@H](CO)NC(=O)[C@@H](NC(=O)[C@H](CC(=O)O)NC(=O)[C@H](CO)NC(=O)[C@@H](NC(=O)[C@H](Cc1ccccc1)NC(=O)[C@@H](NC(=O)CNC(=O)[C@H](CCC(=O)O)NC(=O)C(C)(C)NC(=O)[C@@H](N)Cc1c[nH]cn1)[C@@H](C)O)[C@@H](C)O)C(C)C)C(C)C)C(=O)N[C@@H](C)C(=O)N[C@@H](Cc1c[nH]c2ccccc12)C(=O)N[C@@H](CC(C)C)C(=O)N[C@H](C(=O)N[C@@H](CCC(=O)O)C(=O)N[C@@H](CCCCN)C(=O)N[C@H](C(=O)N[C@@H](CCCCN)C(=O)N[C@@H](CCC(=O)O)C(=O)NCC(=O)N[C@@H](CC(C)C)C(N)=O)C(C)C)C(C)C
B8: [Aib8,Glu23,Val25,Glu34,Lys35,Val36,Lys37]-GLP-1-(7-37)-peptidyl-Glu-Glu-Leu amide (peptide)
peptide: H[Aib]EGTFTSDVSSYLEGEAVKEFIAWLVEKVKEEL-NH2
modifications: N-terminus assumed
SMILES: CC[C@H](C)[C@H](NC(=O)[C@H](Cc1ccccc1)NC(=O)[C@H](CCC(=O)O)NC(=O)[C@H](CCCCN)NC(=O)[C@@H](NC(=O)[C@H](C)NC(=O)[C@H](CCC(=O)O)NC(=O)CNC(=O)[C@H](CCC(=O)O)NC(=O)[C@H](CC(C)C)NC(=O)[C@H](Cc1ccc(O)cc1)NC(=O)[C@H](CO)NC(=O)[C@H](CO)NC(=O)[C@@H](NC(=O)[C@H](CC(=O)O)NC(=O)[C@H](CO)NC(=O)[C@@H](NC(=O)[C@H](Cc1ccccc1)NC(=O)[C@@H](NC(=O)CNC(=O)[C@H](CCC(=O)O)NC(=O)C(C)(C)NC(=O)[C@@H](N)Cc1c[nH]cn1)[C@@H](C)O)[C@@H](C)O)C(C)C)C(C)C)C(=O)N[C@@H](C)C(=O)N[C@@H](Cc1c[nH]c2ccccc12)C(=O)N[C@@H](CC(C)C)C(=O)N[C@H](C(=O)N[C@@H](CCC(=O)O)C(=O)N[C@@H](CCCCN)C(=O)N[C@H](C(=O)N[C@@H](CCCCN)C(=O)N[C@@H](CCC(=O)O)C(=O)N[C@@H](CCC(=O)O)C(=O)N[C@@H](CC(C)C)C(N)=O)C(C)C)C(C)C

Molecular target: human GLP-1 receptor (human, UniProt P43220)
Assay: cell-based or functional assay

Binder | CRE luciferase EC50, 0% HSA [nM] | CRE luciferase EC50, 1% HSA [nM]
B1 | 0.129 | 0.032
B2 | 0.059 | 0.029
B3 | 0.034 | 0.007
B4 | 0.323 | 0.128
B5 | 0.163 | 0.039
B6 | 0.921 | 0.276
B7 | 0.011 | 0.003
B8 | 0.025 | 0.016
